# From the Human Domainome abundance scans (Beltran et al. 2025)
# ± gives the uncertainty stated by the source.
# B1: Gamma-crystallin S, residues 96 to 176; numbered along this chain, P22914 (parent)
# chain: IQIFEKGDFSGQMYETTEDCPSIMEQFHMREIHSCKVLEGVWIFYELPNYRGRQYLLDKKEYRKPIDWGAASPAVQSFRRI
# Variants of: B1
# Assay: abundance fitness (aPCA) (normalised: wild type 0, dead -1); higher = more abundant; growth selection in yeast, the domain comes from the species named
# Conditions: Homo sapiens
row,Variant,abundance fitness
1,IQIFEKGDFSGQMYETTEDCPSIMEQFHMREINSCKVLEGVWIFYELPNYRGRQYLLDKKEYRKPIDWGAASPAVQSFRRI [H33N],-0.01 ± 0.11
2,IQIFEKGDFSGQMYETTEDCPSIMEQFHCREIHSCKVLEGVWIFYELPNYRGRQYLLDKKEYRKPIDWGAASPAVQSFRRI [M29C],0.132 ± 0.13
3,IQIFEKGDFSGQMYETTEDCPSIMEQFHWREIHSCKVLEGVWIFYELPNYRGRQYLLDKKEYRKPIDWGAASPAVQSFRRI [M29W],0.027 ± 0.071
4,IQIFEKGDFSGQMYETTEDCPSIMEQFHMREIHSCKVLEGVWIFYELPNYRGRQYLLDKKEYRKPIDWGAASPAVQLFRRI [S77L],-0.932 ± 0.48
5,IQIFEKGDFSGQMYETTEDCPSIMEQFHMREIHSCKVLEGVWIFYELPNYRGRQYLLDKKEYRKPIDWGAASPAVQAFRRI [S77A],-0.003 ± 0.18
6,IQIFEKGDFSGQMYETTEDCPSIMEQFHMREIHSCKVLEGVWIFYELPNYRGRQMLLDKKEYRKPIDWGAASPAVQSFRRI [Y55M],-0.231 ± 0.25
7,IQIFEKGDFSGQMYETTEDCPSIMEQFHMREIHSCKVLEGVWIFYELPNYRGRQLLLDKKEYRKPIDWGAASPAVQSFRRI [Y55L],-0.051 ± 0.21
8,IQIFEKGDFSGQMYETTEDCPSIMEQFHMREIHSCKVGEGVWIFYELPNYRGRQYLLDKKEYRKPIDWGAASPAVQSFRRI [L38G],0.02 ± 0.03
9,IQIFEKGDFSGQMYETTEDCPSIMEQFHMREIHSCKVCEGVWIFYELPNYRGRQYLLDKKEYRKPIDWGAASPAVQSFRRI [L38C],-0.067 ± 0.065
10,IQIFEKGDFSGQMYETTEDCPSIMEQFHMREIHSCKVLEGVWIFYELPNYLGRQYLLDKKEYRKPIDWGAASPAVQSFRRI [R51L],-0.019 ± 0.044
11,IQIFEKGDFSGQMYETTEDCPSIMEQFHMREIHSCKVLEGVWIFYELPNYKGRQYLLDKKEYRKPIDWGAASPAVQSFRRI [R51K],0.008 ± 0.082
12,IQIFEKGDFSGQMYETTEDCPSIMEQFHMREIHSCKVLEGVWQFYELPNYRGRQYLLDKKEYRKPIDWGAASPAVQSFRRI [I43Q],0.056 ± 0.13
13,IQIFEKGDFSGQMYETTEDCPSIMEQFHMRTIHSCKVLEGVWIFYELPNYRGRQYLLDKKEYRKPIDWGAASPAVQSFRRI [E31T],0.106 ± 0.086
14,IQIFEKGDFSGQMYETTEDCPSIMEQFHMREIHSCKVLEGVWIFYELPNYRGRQYLLDKKEYRKPIDWGAASPAVQSFLRI [R79L],-0.406 ± 0.16
15,IQIFEKGDFSGQMYETTEDCPSIMEQFHMREPHSCKVLEGVWIFYELPNYRGRQYLLDKKEYRKPIDWGAASPAVQSFRRI [I32P],0.051 ± 0.11
16,IQIFEKGDFSGQMYEKTEDCPSIMEQFHMREIHSCKVLEGVWIFYELPNYRGRQYLLDKKEYRKPIDWGAASPAVQSFRRI [T16K],-0.129 ± 0.15
17,IQIFEKGDFSGQMYETTEDCPSIMEQFHMDEIHSCKVLEGVWIFYELPNYRGRQYLLDKKEYRKPIDWGAASPAVQSFRRI [R30D],0.009 ± 0.095

row,Variant,abundance fitness
1,IQIFEKGDFSMQMYETTEDCPSIMEQFHMREIHSCKVLEGVWIFYELPNYRGRQYLLDKKEYRKPIDWGAASPAVQSFRRI [G11M],0.062 ± 0.055
2,IQIFEKGDFSRQMYETTEDCPSIMEQFHMREIHSCKVLEGVWIFYELPNYRGRQYLLDKKEYRKPIDWGAASPAVQSFRRI [G11R],-0.135 ± 0.032
3,IQIFEKGTFSGQMYETTEDCPSIMEQFHMREIHSCKVLEGVWIFYELPNYRGRQYLLDKKEYRKPIDWGAASPAVQSFRRI [D8T],0.063 ± 0.052
4,IQIFEKGDFSGQMYETTEDCPSIMEQFHMREIHSCKVLEGVWIFYELVNYRGRQYLLDKKEYRKPIDWGAASPAVQSFRRI [P48V],-0.104 ± 0.049
5,IQIFEKGDFSGQMYETTEDCPSIMEQFHMREIHSCKVLEGVWIFYELPNYRGRQYLLDKKEYRKPIDWGAASPAVLSFRRI [Q76L],-0.129 ± 0.27
6,IQIFEKGDFSGQMYETTEDCPSIMEQFHMREIHSCKVLEGVWIFYELPNYRGRQYLLDKKEYRKPIDWGAASPAVQSRRRI [F78R],-1.11 ± 0.38
7,IQIFEKGDFSGQMYETTEDCPSIMEQFHMREIHHCKVLEGVWIFYELPNYRGRQYLLDKKEYRKPIDWGAASPAVQSFRRI [S34H],-0.641 ± 0.16
8,IQIFEKGDFSGQMYETTEDCPSIMEQFHMREIHSCKVLETVWIFYELPNYRGRQYLLDKKEYRKPIDWGAASPAVQSFRRI [G40T],-0.251 ± 0.075
9,IQIFEKGDFSGQMYETTEDCPSIMEQFHMREIHSCKVLEIVWIFYELPNYRGRQYLLDKKEYRKPIDWGAASPAVQSFRRI [G40I],-0.759 ± 0.28
10,IQIFEKGDFSGQVYETTEDCPSIMEQFHMREIHSCKVLEGVWIFYELPNYRGRQYLLDKKEYRKPIDWGAASPAVQSFRRI [M13V],-0.017 ± 0.047
11,IQIFEKGDFSGQPYETTEDCPSIMEQFHMREIHSCKVLEGVWIFYELPNYRGRQYLLDKKEYRKPIDWGAASPAVQSFRRI [M13P],0.027 ± 0.059
12,IQIFEKGDFSGQMYETTEDCPSIMEQFHMREIHSCKVLEGVWIFYELPNYRGRQYLLDKKEYRKPIDWGAASPAVQSFRLI [R80L],0.02 ± 0.17
13,IQIFEKGDFSGQMYETTEDCPSIMEQFHMREIHSCKVLEGVWIFYELPNYRGRQYLLDKKEYRKPIDWGAASPAVQSFRQI [R80Q],-0.491 ± 0.24
14,IQIFEKGDFSGQMYETTEDCPSIMEQFHMREIHSCKVLEGVWIFYELPNYRGRQYLLDKKEYRKPIDWGAAWPAVQSFRRI [S72W],0.007 ± 0.15
15,IQIFEKGDFSGQMYETTEDCPSIMEQFHMREIHSCKVLEGVWIFYELPNYRGRQYQLDKKEYRKPIDWGAASPAVQSFRRI [L56Q],-0.052 ± 0.17
16,IQIFEKGDFSGQMYETTEDCPSIMEQFHMREIHSCKVLEGVWIFYELPNYRGRQYELDKKEYRKPIDWGAASPAVQSFRRI [L56E],0.115 ± 0.2
17,IQIFEKGDFSGQMYETTEDCQSIMEQFHMREIHSCKVLEGVWIFYELPNYRGRQYLLDKKEYRKPIDWGAASPAVQSFRRI [P21Q],0.023 ± 0.11
